Assay results: patent US20250282879A1 (CILAG GMBH INTERNATIONAL, published 2025)
Like-named read-outs stand apart in the source and are kept apart here. Values belong to the binder of their own block, whether it stands above or below them.

Key:
[1] = target: T1, recombinant human IL-31 protein (Peprotech) (human, UniProt Q6EBC2 24-164); assay: cell-based or functional assay
T1 sequence (looked up): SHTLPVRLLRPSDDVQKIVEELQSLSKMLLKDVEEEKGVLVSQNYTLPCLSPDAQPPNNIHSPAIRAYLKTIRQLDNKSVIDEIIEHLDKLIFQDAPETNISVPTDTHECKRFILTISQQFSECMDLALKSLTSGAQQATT

[2] = target: T1, recombinant human IL-31 protein …; assay: cell-based or functional assay; remark: listed apart in the source
[3] = target: T1, recombinant human IL-31 protein …; assay: competitive ELISA, hIL-31/hIL-31RA
Procedure: Potency of the two humanized scFvs was further determined using a competitive ELISA. The potency of each scFv to inhibit the interaction between human IL-31 and human IL-31RA was assessed by an ELISA using the same procedure as described in EP20216938.9.

[4] = target: T2, human IL-31-His (human, UniProt Q6EBC2 24-164); assay: SPR, IL-31-His captured, scFv analyte (30 and 10 nM)
T2 construct: captured via an anti-His tag antibody; also called human IL-31 (scFv SPR); not shown: His tag
T2 sequence (looked up): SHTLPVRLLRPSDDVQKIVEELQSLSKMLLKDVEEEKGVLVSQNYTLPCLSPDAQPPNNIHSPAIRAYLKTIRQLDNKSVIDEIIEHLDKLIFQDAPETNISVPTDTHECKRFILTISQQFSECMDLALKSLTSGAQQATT
Procedure: (§1) Affinity of the two humanized scFvs to human and cynomolgus IL-31 was determined by SPR analysis on a T200 device (Biacore, GE Healthcare). Cynomolgus IL-31 was manufactured on demand by Sino Biological since it was not available commercially. Human and cynomolgus IL-31-His was captured via an anti-His tag antibody coupled to a carboxylmethylated dextran surface and the scFvs were injected as analyte. After each analyte injection cycle the sensor chip was regenerated and new antigen was captured. The scFvs were measured using a dose response multi-cycle kinetic assay in a high-throughput mode with two concentrations (30 and 10 nM) diluted in running buffer. Obtained sensorgrams were fitted using a 1:1 binding model.
Affinity of PRO1643 and of the optimized anti-IL-31 scFvs to human IL-31 was determined by SPR analysis on a T200 device (Biacore, GE Healthcare), as described above in section 2.2.2. The scFvs were measured using a dose response multi-cycle kinetic assay in a high-throughput mode with two concentrations (30 and 10 nM) diluted in running buffer. Obtained sensorgrams were fitted using a 1:1 binding model.

[5] = target: T2, human IL-31-His; assay: SPR, IL-31-His captured, scFv analyte, screening mode
Procedure: as §1

[6] = target: T2, human IL-31-His; assay: SPR, IL-31-His captured, scFv analyte, full titration mode
[7] = target: T3, human IL-4R on cells (HEK-Blue IL-4/IL-13 cells, human PBMC, human whole blood) (human, UniProt P24394 26-825); assay: cell-based or functional assay
[8] = target: T4, human IL-4R (form not stated) (human, UniProt P24394 26-232, limits assumed); assay: competition ELISA, hIL-4/IL-4R (plate of PRO1898)
T4 construct: whole entry named; also called hIL-4R

[9] = target: T4, human IL-4R (form not stated); assay: competition ELISA, hIL-4/IL-4R (plate of PRO1899)
[10] = target: T3, human IL-4R on cells (HEK-Blue …); assay: cell-based or functional assay; remark: listed apart in the source
[11] = target: T3, human IL-4R on cells (HEK-Blue …); assay: cell-based or functional assay; remark: listed apart in the source
[12] = target: T3, human IL-4R on cells (HEK-Blue …); assay: cell-based or functional assay; remark: listed apart in the source
[13] = target: T1, recombinant human IL-31 protein …; assay: cell-based or functional assay; remark: listed apart in the source
[14] = target: T3, human IL-4R on cells (HEK-Blue …); assay: cell-based or functional assay; remark: listed apart in the source
[15] = target: T1, recombinant human IL-31 protein …; assay: cell-based or functional assay; remark: listed apart in the source
[16] = target: T5, recombinant cynomolgus monkey IL-31 (ECD with His Tag, Sino Biological) (cynomolgus monkey); assay: cell-based or functional assay
[17] = target: T6, human IL-4R on transfected HEK293T cells (human, UniProt P24394 26-825); assay: flow cytometry, transfected HEK293T cells
T6 construct: whole, on cells; also called human IL-4R-expressing HEK293T cells; not shown: V5 Tag fused to the N-terminus of the expression construct
Description: (§2) To test binding of the Morrison-H and Morrison-L antibodies PRO2198, PRO2199, PRO2206 and PRO2207 to human or cynomolgus IL-4R-expressing HEK293T cells, HEK293T cells were transfected with human and cynomolgus IL-4R plasmids and mock plasmid using Lipofectamine3000. Binding of an antibody targeting V5 Tag, which is fused to the N-terminus of human and cynomolgus IL-4R expression constructs, would confirm successful expression of both targets and was thus used as a positive control for plasma membranous binding. The Morrison-H molecule PRO2077 was used as negative control for cynomolgus IL-4R binding since this molecule had not shown any cross-reactivity to cynomolgus IL-4R (see section 5.3.).
(§3) 50,000 transfected HEK293T cells per well were seeded in a 96-well plate. 5-fold serial dilutions of the Morrison-H and Morrison-L antibodies PRO2198, PRO2199, PRO2206 and PRO2207 and of the control molecule PRO2077, which is not cross-reactive to cynomolgus IL-4R, were added at concentrations ranging from 5,000 to 0.32 ng/ml to the plates and incubated for 60 min at 4° C. on a shaker. Supernatants were removed and detection reagent was added for flow cytometry analysis. The geometric mean of the APC fluorescence intensity of single cells was calculated.

[18] = target: T7, cynomolgus IL-4R on transfected HEK293T cells (cynomolgus monkey, UniProt A0A2K5V580 33-832); assay: flow cytometry, transfected HEK293T cells
T7 construct: whole, on cells; also called cynomolgus IL-4R-expressing HEK293T cells; not shown: V5 Tag fused to the N-terminus of the expression construct
T7 sequence (A0A2K5V580 entry or part of it): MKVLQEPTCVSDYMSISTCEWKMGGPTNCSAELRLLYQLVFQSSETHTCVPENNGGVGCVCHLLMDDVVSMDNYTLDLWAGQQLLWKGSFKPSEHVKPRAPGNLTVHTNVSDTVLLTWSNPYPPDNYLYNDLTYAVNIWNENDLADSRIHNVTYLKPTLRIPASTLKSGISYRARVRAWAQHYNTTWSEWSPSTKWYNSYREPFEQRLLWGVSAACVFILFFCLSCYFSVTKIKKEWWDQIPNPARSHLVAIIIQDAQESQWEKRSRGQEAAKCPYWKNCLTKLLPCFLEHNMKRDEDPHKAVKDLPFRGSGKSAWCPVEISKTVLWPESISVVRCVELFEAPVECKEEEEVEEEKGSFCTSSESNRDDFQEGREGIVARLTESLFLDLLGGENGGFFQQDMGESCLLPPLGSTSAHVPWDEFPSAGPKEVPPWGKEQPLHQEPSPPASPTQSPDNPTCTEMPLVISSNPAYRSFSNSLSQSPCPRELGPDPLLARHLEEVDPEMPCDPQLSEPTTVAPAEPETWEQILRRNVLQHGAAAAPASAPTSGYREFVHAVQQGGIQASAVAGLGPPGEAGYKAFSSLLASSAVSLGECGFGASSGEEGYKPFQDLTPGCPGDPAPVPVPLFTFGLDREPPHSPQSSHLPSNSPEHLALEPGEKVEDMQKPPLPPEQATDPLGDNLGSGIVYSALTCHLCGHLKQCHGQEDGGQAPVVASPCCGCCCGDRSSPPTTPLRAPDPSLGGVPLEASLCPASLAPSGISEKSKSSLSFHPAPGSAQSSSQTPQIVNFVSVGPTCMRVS
Description: as §2, §3

[19] = target: T5, recombinant cynomolgus monkey IL-31 …; assay: SPR, Morrison captured on immobilized human IL-4R-Fc, IL-31 analyte
[20] = target: T8, recombinant human IL-4R protein (ECD with His Tag, Sino Biological) (human, UniProt P24394 26-232); assay: SPR, Morrison captured via anti-human IgG-Fc, IL-4R ECD-His analyte
T8 construct: extracellular domain; bought; also called human IL-4R ECD; not shown: His Tag
Procedure: (§4) Binding kinetics (including affinity) of the bispecific Morrison-H (PRO2198, PRO2199) and Morrison-L (PRO2206, PRO2207) molecules to recombinant human IL-4R protein (ECD with His Tag, Sino Biological) were determined by SPR analysis on a T200 device (Biacore, Cytiva). In this SPR experiment, Morrison molecules were captured via an anti-human IgG-Fc antibody (Human Antibody Capture Kit; Biacore, Cytiva) covalently immobilized to a carboxylmethylated dextran surface (CM5 sensorchip; Biacore, Cytiva) and a titration series of human IL-4R ECD was injected as analyte. After each analyte injection cycle, the sensor chip was regenerated (MgCl₂), and new Morrison antibody was subsequently re-captured. […] The apparent dissociation (kd) and association (kₐ) rate constants and the apparent dissociation equilibrium constant (KD) were calculated with the Biacore analysis software (Biacore Evaluation software Version 3.2, Cytiva) using one-to-one Langmuir binding model and quality of the fits was monitored based on Chi2 and U-value, which are measures for the quality of the curve fitting. The binding level was calculated as the maximum stability binding achieved normalized to the theoretical Rmax. Cross-reactivity to cynomolgus monkey IL-4R was measured using the same setup as for the analysis of human IL-4R kinetics, with the difference that recombinant cynomolgus monkey IL-4R (ECD with His-tag, Acro Biosystems) protein was used as analyte instead of human IL-4R.

[21] = target: T9, recombinant cynomolgus monkey IL-4R (ECD with His-tag, Acro Biosystems) (cynomolgus monkey, UniProt A0A2K5V556 26-232); assay: as above
T9 construct: bought; also called cynomolgus IL-4R
T9 sequence (A0A2K5V556 entry or part of it limits assumed): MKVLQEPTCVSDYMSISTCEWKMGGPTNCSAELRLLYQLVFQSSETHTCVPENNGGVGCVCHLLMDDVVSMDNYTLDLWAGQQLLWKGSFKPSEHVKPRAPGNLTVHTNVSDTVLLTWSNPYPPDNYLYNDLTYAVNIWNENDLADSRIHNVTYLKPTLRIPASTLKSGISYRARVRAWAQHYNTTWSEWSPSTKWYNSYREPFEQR
Procedure: as §4

IC50, neutralization of hIL-31-induced signaling in IL-31RA/OSMR dimerization assay [1]: 11.1 ng/mL
IC50, neutralization of hIL-31-induced signaling in IL-31RA/OSMR dimerization assay [2]: 8.08 ng/mL
IC50 [3]: 4.58 ng/mL
Kd [4]: 1.13 nM
koff [4]: 0.000653 s⁻¹
kon [4]: 579000 M⁻¹ s⁻¹
Kd [5]: 0.505 nM
koff [5]: 0.000447 s⁻¹
kon [5]: 884000 M⁻¹ s⁻¹
Kd [6]: 0.63 nM
koff [6]: 0.000516 s⁻¹
kon [6]: 820000 M⁻¹ s⁻¹
B1: PRO1643 (scFv, V domains shown)
VH: QSQLVESGGGLVQPGGSLRLSCAASGFSFSANYWICWVRQAPGKGLEWIVCIYIGSRADTYYAPWAKGRFTISKDNSKNTVYLQMNSLRAEDTAVYFCARFSSGIYDLDRFFLWGQGTLVTVSS
V domain: AFQLTQSPSSLSASVGDRVTITCQASQSIDSWLAWYQQKPGKPPKLLIYQASKLASGVPSRFSGSGSGTDYTLTISSLQPEDFATYYCQTYYGGGHIGWGFGTGTKVTV
notes: anti-IL-31 scFv, full graft; VL entry ends with LCDR3 (no FR4); also called 50-09-D07-sc03

IC50, neutralization of hIL-4 induced signaling, stat-6 reporter gene assay [7]: 1.15 ng/mL
IC50, neutralization of hIL-13 induced signaling, stat-6 reporter gene assay [7]: 1 ng/mL
IC50 [8]: 6.78 ng/mL
IC50 [9]: 6.18 ng/mL
B2: dupilumab (antibody, V domains shown)
VH: EVQLVESGGGLEQPGGSLRLSCAGSGFTFRDYAMTWVRQAPGKGLEWVSSISGSGGNTYYADSVKGRFTISRDNSKNTLYLQMNSLRAEDTAVYYCAKDRLSITIRPRYYGLDVWGQGTTVTVSS
VL: DIVMTQSPLSLPVTPGEPASISCRSSQSLLYSIGYNYLDWYLQKSGQSPQLLIYLGSNRASGVPDRFSGSGSGTDFTLKISRVEAEDVGFYYCMQALQTPYTFGQGTKLEIKR

IC50, IL-4-induced TARC secretion in human whole blood [10]: < 0.5 nM
Mean IC50, human IL-4-induced signaling, stat-6 reporter gene assay [11]: 0.0239 nM
Mean IC50, human IL-13-induced signaling, stat-6 reporter gene assay [12]: 0.0221 nM
Mean IC50, human IL-31-induced signaling, IL-31RA/OSMR dimerization assay [13]: 0.198 nM
IC50, IL-4-induced CD23 expression, memory B cells [14]: 4.47 nM
IC50, IL-4-induced CD23 expression, monocytes (blood donor 1) [14]: 0.0904 nM
IC50, IL-4-induced CD23 expression, naive B cells [14]: 1.37 nM
IC50 (read off the curve), human IL-31-induced IL-31RA/OSMR dimerization, with an excess of IL-4R extracellular domain in the medium [15]: ~0.2 nM
IC50, cynomolgus IL-31-induced IL-31RA/OSMR dimerization (RLU) [table under the graph] [16]: 0.959 nM
EC50 [17]: 1.11 nM
EC50 [18]: 0.97 nM
Kd [19]: 0.01 nM
Kd [20]: 0.291 nM
koff [20]: 0.000101 s⁻¹
kon [20]: 352000 M⁻¹ s⁻¹
Kd [21]: 0.144 nM
koff [21]: 4.9e-05 s⁻¹
kon [21]: 370000 M⁻¹ s⁻¹
B3: PRO2198 (bispecific antibody, human IgG4 S228P, kappa)
light: DIQMTQSPSSLSARVGDRVTITCQASEDIESYLAWYQQKPGKAPKLLIYRASTLAYGVPSRFSGSGSGRDFTLTISSLQPEDFATYYCLGSSYSTGSNIFGQGTKVEIKRTVAAPSVFIFPPSDEQLKSGTASVVCLLNNFYPREAKVQWKVDNALQSGNSQESVTEQDSKDSTYSLSSTLTLSKADYEKHKVYACEVTHQGLSSPVTKSFNRGEC
heavy: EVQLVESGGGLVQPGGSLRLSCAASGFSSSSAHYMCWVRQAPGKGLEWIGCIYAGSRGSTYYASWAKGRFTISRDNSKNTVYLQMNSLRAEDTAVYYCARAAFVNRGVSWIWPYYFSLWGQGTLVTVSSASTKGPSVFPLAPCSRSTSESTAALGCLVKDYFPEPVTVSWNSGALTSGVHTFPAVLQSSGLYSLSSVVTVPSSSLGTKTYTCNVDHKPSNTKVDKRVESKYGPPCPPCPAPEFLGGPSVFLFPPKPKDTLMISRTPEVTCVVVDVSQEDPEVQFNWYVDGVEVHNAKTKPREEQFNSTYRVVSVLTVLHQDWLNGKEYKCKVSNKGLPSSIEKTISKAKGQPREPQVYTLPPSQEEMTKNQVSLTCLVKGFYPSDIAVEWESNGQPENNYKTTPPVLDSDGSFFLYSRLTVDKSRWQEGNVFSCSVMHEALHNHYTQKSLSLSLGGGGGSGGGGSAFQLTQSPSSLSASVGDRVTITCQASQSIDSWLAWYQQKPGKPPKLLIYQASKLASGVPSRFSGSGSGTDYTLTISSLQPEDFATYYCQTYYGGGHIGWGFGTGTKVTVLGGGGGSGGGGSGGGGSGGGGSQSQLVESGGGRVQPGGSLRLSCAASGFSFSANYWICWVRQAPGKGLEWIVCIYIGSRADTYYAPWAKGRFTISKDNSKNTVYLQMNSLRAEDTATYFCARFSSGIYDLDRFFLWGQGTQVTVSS
notes: IgG4 (S228P) Morrison-H, anti-IL-4R Fab arms, anti-IL-31 scFv on the C-terminus of the heavy chain; tetravalent, bispecific; also called Morrison-H; MorrH
